Molecular target: hAGO2 (human, UniProt Q9UKV8 1-859)
Assay: EMSA

Sequence of hAGO2 (Q9UKV8 whole entry): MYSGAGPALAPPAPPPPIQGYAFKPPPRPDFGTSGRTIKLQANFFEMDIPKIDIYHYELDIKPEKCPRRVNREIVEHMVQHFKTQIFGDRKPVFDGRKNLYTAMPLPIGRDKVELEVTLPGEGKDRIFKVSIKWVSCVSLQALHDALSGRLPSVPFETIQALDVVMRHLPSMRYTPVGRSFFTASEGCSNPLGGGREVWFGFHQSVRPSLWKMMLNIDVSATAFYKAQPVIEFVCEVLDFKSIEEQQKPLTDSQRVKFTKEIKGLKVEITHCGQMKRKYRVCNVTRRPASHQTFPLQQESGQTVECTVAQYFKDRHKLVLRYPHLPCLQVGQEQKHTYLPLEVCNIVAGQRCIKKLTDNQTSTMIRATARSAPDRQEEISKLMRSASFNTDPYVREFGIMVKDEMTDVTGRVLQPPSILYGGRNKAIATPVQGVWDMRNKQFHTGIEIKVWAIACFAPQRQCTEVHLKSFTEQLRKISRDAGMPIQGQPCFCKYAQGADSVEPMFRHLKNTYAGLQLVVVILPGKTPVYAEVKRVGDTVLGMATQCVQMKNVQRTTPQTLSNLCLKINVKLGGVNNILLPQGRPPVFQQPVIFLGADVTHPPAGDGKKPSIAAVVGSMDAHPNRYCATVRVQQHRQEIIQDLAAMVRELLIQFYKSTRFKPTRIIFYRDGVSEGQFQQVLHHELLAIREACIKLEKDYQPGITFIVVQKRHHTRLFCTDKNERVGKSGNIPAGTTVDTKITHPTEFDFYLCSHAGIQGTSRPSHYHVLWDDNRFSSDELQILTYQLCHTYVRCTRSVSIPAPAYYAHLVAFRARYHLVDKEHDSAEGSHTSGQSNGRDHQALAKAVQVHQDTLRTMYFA

B1: 5'Cy5-HIS-SARS2-1 DNA duplex (dsDNA)
DNA 1: AGCCTTTACCTCCATTAGCATAGACA
DNA 2: TGTCTATGCTAATGGAGGTAAAGGCT
- binding result: binds

Source: paper PMC8811534
